Source: publication PMC3675359, “GxcC connects Rap and Rac signaling during Dictyostelium development” (BMC Cell Biology, 2013)

Biological target: T1, NtermGxcC (aa 1-633), recombinant GST-ARM purified from E. coli (Dictyostelium discoideum, UniProt Q54P24 1-633)
T1 construct: GxcC, Dictyostelium discoideum, UniProt Q54P24; aa 1-633 as printed, from pGEX4T3; the cloning paragraph says that the N-terminal fragment of base pairs 1-1911 (637 codons) was ligated into pGEX 4T3; also called ARM domain of GxcC; purified GxcC ARM domain; not shown: GST, N-terminal, kept
T1 sequence (looked up): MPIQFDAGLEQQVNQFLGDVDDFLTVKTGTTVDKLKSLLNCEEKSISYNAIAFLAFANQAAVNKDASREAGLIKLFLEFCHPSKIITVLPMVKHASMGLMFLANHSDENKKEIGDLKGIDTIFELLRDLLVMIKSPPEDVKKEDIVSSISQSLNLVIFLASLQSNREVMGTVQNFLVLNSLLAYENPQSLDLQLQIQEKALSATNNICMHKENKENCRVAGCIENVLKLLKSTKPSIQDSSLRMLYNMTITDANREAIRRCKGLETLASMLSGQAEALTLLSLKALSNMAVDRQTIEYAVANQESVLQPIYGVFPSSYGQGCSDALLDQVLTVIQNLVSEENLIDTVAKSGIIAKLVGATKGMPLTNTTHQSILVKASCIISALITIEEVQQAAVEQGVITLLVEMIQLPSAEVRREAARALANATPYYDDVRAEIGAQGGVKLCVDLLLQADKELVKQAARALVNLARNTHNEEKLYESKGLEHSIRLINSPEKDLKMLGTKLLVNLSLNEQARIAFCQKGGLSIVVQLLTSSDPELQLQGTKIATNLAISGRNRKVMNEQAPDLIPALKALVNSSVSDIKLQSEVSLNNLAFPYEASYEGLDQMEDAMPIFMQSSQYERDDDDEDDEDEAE
Assay: guanine nucleotide dissociation inhibition (GDI) assay; G-protein loaded with mGppNHp incubated with an excess of unlabelled nucleotide; decay of fluorescence (kobs) at varying concentrations of GST-ARM
Settings: both partners purified

B1: RapA purified from E. coli (loaded with mGppNHp or mGDP) (natural protein, Dictyostelium discoideum, UniProt P18613 1-186, looked up)
chain: MPLREFKIVVLGSGGVGKSALTVQFVQGIFVEKYDPTIEDSYRKQVEVDSNQCMLEILDTAGTEQFTAMRDLYMKNGQGFVLVYSIISNSTFNELPDLREQILRVKDCEDVPMVLVGNKCDLHDQRVISTEQGEELARKFGDCYFLEASAKNKVNVEQIFYNLIRQINRKNPVGPPSKAKSKCALL
notes: RapA, Dictyostelium discoideum; Loaded with the fluorescent nucleotide mGppNHp (or mGDP); It may be the GST-RapA of the screen with or without its GST; source: E. coli, purified
B1 showed a Kd of 13.3 µM.
